In paper PMC8529090 (Computational and Structural Biotechnology Journal, 2021):

B1: recombinant L1CAM ectodomain (L1CAM-ED) (domain or fragment, human, UniProt P32004 20-1120, looked up)
chain: IQIPEEYEGHHVMEPPVITEQSPRRLVVFPTDDISLKCEASGKPEVQFRWTRDGVHFKPKEELGVTVYQSPHSGSFTITGNNSNFAQRFQGIYRCFASNKLGTAMSHEIRLMAEGAPKWPKETVKPVEVEEGESVVLPCNPPPSAEPLRIYWMNSKILHIKQDERVTMGQNGNLYFANVLTSDNHSDYICHAHFPGTRTIIQKEPIDLRVKATNSMIDRKPRLLFPTNSSSHLVALQGQPLVLECIAEGFPTPTIKWLRPSGPMPADRVTYQNHNKTLQLLKVGEEDDGEYRCLAENSLGSARHAYYVTVEAAPYWLHKPQSHLYGPGETARLDCQVQGRPQPEVTWRINGIPVEELAKDQKYRIQRGALILSNVQPSDTMVTQCEARNRHGLLLANAYIYVVQLPAKILTADNQTYMAVQGSTAYLLCKAFGAPVPSVQWLDEDGTTVLQDERFFPYANGTLGIRDLQANDTGRYFCLAANDQNNVTIMANLKVKDATQITQGPRSTIEKKGSRVTFTCQASFDPSLQPSITWRGDGRDLQELGDSDKYFIEDGRLVIHSLDYSDQGNYSCVASTELDVVESRAQLLVVGSPGPVPRLVLSDLHLLTQSQVRVSWSPAEDHNAPIEKYDIEFEDKEMAPEKWYSLGKVPGNQTSTTLKLSPYVHYTFRVTAINKYGPGEPSPVSETVVTPEAAPEKNPVDVKGEGNETTNMVITWKPLRWMDWNAPQVQYRVQWRPQGTRGPWQEQIVSDPFLVVSNTSTFVPYEIKVQAVNSQGKGPEPQVTIGYSGEDYPQAIPELEGIEILNSSAVLVKWRPVDLAQVKGHLRGYNVTYWREGSQRKHSKRHIHKDHVVVPANTTSVILSGLRPYSSYHLEVQAFNGRGSGPASEFTFSTPEGVPGHPEALHLECQSNTSLLLRWQPPLSHNGVLTGYVLSYHPLDEGGKGQLSFNLRDPELRTHNLTDLSPHLRYRFQLQATTKEGPGEAIVREGGTMALSGISDFGNISATAGENYSVVSWVPKEGQCNFRFHILFKALGEEKGGASLSPQYVSYNQSSYTQWDLQPDTDYEIHLFKERMFRHQMAVKTNGTGRVRLPPAGFATE

Experiments:
[1] = target: the molecule itself; experiment: SPR
[2] = target: B1; experiment: SPR

| percent reduction of the RUmax of L1CAM-ED binding to immobilised L1CAM-ED [2] [%] | Binder | Kd [1] [nM] |
| --- | --- | --- |
| – | B1 | 17 ± 1.3 |
| 20 | PIPGDSRVVVLPSG [DCC-A peptide] | – |
| 20 | FIPTDGRHFVSQTTG [CNTN2-A peptide] | – |
| 20 | LKEEEGRITIRGGK [ROBO3-A peptide] | – |
